Assay [1] has as its target T1, E. coli expressed human GP73 (amino acids 63 to 400) with C-terminal 6xHis tag (human, UniProt Q8NBJ4 64-401).
T1 construct: No human Fc, not glycosylated; also called GP73 produced in E. coli; E. coli GP73
T1 sequence: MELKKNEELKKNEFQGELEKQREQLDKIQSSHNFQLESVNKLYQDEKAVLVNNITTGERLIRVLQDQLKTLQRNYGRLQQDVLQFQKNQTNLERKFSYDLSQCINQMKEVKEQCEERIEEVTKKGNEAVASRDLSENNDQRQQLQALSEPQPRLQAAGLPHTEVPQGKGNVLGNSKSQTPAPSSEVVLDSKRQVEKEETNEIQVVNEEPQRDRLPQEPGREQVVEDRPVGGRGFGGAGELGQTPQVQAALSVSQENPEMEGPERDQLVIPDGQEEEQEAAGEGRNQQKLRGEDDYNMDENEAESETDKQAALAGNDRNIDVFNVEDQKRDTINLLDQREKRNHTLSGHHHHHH
Briefly: Western blot on E. coli expressed GP73 antigen. As for the experimental part: The mammalian cell (HEK and CHO) expressed GP73-hFc or E. coli expressed GP73, as described above, were electrophoresed in a 4-20% SDS-PAGE gel. […] The nitrocellulose membrane was blocked with PBS buffer containing 5% non-fat dry milk and 0.05% Tween 20 for about 1 hr. The nitrocellulose membrane was incubated with an appropriate amount of anti-GP73 monoclonal antibody in 10 mL of 2.5% non-fat dry milk and 0.05% Tween 20 PBS buffer, pH 7.2. The nitrocellulose membranes were washed with 0.05% Tween 20/PBS, pH 7.2, incubated with goat anti-mouse IgG antibody conjugated with HRP for 1 hr at room temperature, and washed with 0.05% Tween 20/PBS buffer. Antibody bound to the GP73 protein was visualized by the addition of freshly prepared metal enhanced 3,3′-Diaminobenzidine in stable peroxide buffer (Pierce, Ill.).

Assay [2] deals with T2, GP73-hFc (human GP73 amino acids 63 to 400 fused at the C-terminus to human IgG1 Fc) (human).
T2 construct: Expressed in HEK293F, CHO or HepG2 cells; the host is named under assay; also called HEK expressed GP73-hFc; CHO expressed GP73-hFc
T2 chain: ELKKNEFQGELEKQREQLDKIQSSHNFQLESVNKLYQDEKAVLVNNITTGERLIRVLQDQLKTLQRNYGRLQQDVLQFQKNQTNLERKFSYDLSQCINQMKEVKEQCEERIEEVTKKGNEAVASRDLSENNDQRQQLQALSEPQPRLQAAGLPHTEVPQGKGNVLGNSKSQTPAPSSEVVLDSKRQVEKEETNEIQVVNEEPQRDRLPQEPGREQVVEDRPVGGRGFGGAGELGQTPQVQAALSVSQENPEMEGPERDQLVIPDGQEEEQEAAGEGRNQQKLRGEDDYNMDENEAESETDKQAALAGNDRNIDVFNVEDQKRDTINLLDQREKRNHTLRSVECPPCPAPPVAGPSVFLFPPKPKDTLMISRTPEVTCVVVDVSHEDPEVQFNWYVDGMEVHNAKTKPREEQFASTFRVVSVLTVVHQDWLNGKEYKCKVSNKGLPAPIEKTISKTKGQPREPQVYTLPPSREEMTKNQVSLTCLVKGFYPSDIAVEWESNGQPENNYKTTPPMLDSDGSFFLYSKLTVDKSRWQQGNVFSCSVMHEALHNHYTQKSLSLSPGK
The assay is described as follows: SPR Biacore 2000, mAb captured on rabbit anti-mouse IgG, HEK GP73-hFc analyte 0.412-100 nM, 1:1 fit; standard error 2 × 10^-5, larger than the value; dissociation hardly resolved. The protocol: First, an approximately 13,000-15,000 RU rabbit anti-mouse IgG Capture Biosensor was created by amine-coupling rabbit anti-mouse IgG antibody (GE Healthcare) to a CM5 biosensor chip (GE Healthcare) via EDC/NHS/ethanolamine chemistry provided in an Amine Coupling Kit (GE Healthcare) after pre-treating the biosensor with duplicate injections of 100 mM HCl, 50 mM NaOH, and 0.1% SDS. Purified GP73 antibody and antigen (HEK GP73-hFc) were diluted into a running buffer (hereinafter “running buffer”) composed of HBS-EP buffer (GE Healthcare) supplemented with 0.1% BSA and 0.1% CM-Dextran. Each GP73 antibody was diluted to 1 μg/mL. The GP73-hFc antigen was diluted to concentrations of 0.412 to 100 nM using a 3-fold dilution series assuming an oligomeric molecular weight of 490 kDa (Abbott Laboratories).
The GP73-hFc antigen program was as follows. After equilibrating the rabbit anti-mouse IgG Capture Biosensor for 3 min at 5 μL/minute with running buffer, GP73 antibody (7-14 μL) was injected over individual flow cells with one flow cell being left blank as a reference flow cell. […] The binding kinetics (association and dissociation) were monitored via sensorgrams during antigen injection and running buffer re-equilibration. […] Standard errors of determined values are reported in parentheses with respect to the smallest number place value.
(In general: Surface plasmon resonance follows binding to a sensor surface in real time, without labels.)

B1: anti-GP73 monoclonal antibody 1B-4863 (antibody, V domains shown)
VH: QVQLKESGPGLVAPSQSLSITCTVSGFSLTSYGVHWVRQSPGKGLEWLGVIWTGGSTNYNSALMSRLSISKDNSESQVFLKVNSLQTDDTGMYYCARDPGTDYFDYWGQGTTLTVSS
VL: DIVMTQSHKFMSTSIGDRVSISCKASQDVSIDVSWYQQKPGQSPTLLIYSASYRYIGVPDRFTGSGSGTAFTFTISSVQAEDLAIYYCQQHFTTPLTFGAGTKLELKR
notes: Biotin labelled in some assays; also called mAb 1B-4863; 1B-4863-Bt
As to B1, the binding result in assay [1] is “binds”.

B2: anti-GP73 monoclonal antibody 1B-4971 (antibody, V domains shown)
VH: QVQLQQSGPALVKPGASVKMSCKASGYTFTNYVIHWVKQKPGQGLERIGYIWPYNDGTKFNEKFKGKATLTSDKSSSTAYMELSSLTSEDSAVYYCSSQQLAYWGQGTTLTVSS
VL: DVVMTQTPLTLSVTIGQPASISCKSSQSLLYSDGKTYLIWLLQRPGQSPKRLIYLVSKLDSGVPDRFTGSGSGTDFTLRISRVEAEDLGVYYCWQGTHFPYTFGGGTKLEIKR
notes: Biotin labelled in some assays; also called mAb 1B-4971; 1B-4971-Bt
In the case of B2, the koff (as a rule, a measure of how fast the partners let go of each other) in assay [2] was at most 1e-05 s⁻¹.

Values taken from US20140271651A1 (AbbVie / Abbott, published 2014).
